Measured values published in IntAct's records for PubMed 29892012.

B1: Acetylcholine receptor subunit gamma (Homo sapiens), P07510 (parent)
chain: MHGGQGPLLLLLLLAVCLGAQGRNQEERLLADLMQNYDPNLRPAERDSDVVNVSLKLTLTNLISLNEREEALTTNVWIEMQWCDYRLRWDPRDYEGLWVLRVPSTMVWRPDIVLENNVDGVFEVALYCNVLVSPDGCIYWLPPAIFRSACSISVTYFPFDWQNCSLIFQSQTYSTNEIDLQLSQEDGQTIEWIFIDPEAFTENGEWAIQHRPAKMLLDPAAPAQEAGHQKVVFYLLIQRKPLFYVINIIAPCVLISSVAILIHFLPAKAGGQKCTVAINVLLAQTVFLFLVAKKVPETSQAVPLISKYLTFLLVVTILIVVNAVVVLNVSLRSPHTHSMARGVRKVFLRLLPQLLRMHVRPLAPAAVQDTQSRLQNGSSGWSITTGEEVALCLPRSELLFQQWQRQGLVAAALEKLEKGPELGLSQFCGSLKQAAPAIQACVEACNLIACARHQQSHFDNGNEEWFLVGRVLDRVCFLAMLSLFICGTAGIFLMAHYNRVPALPFPGDPRPYLPSPD
partner: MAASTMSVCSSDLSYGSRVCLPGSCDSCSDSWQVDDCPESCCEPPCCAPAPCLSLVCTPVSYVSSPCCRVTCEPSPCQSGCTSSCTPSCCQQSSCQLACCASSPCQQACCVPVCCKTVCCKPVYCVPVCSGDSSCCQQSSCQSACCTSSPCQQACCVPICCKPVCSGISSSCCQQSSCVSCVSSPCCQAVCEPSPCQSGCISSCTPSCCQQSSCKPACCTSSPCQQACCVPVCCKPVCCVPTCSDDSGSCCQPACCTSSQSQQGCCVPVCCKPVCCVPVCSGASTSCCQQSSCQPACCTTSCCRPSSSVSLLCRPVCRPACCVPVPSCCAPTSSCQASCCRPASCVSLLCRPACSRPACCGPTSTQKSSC
B2: F-box only protein 11 (Homo sapiens), Q86XK2 (parent)
chain: MNSVRAANRRPRRVSRPRPVQQQQQQPPQQPPPQPPQQQPPQQQPPPPPQQQQQQQPPPPPPPPPPLPQERNNVGERDDDVPADMVAEESGPGAQNSPYQLRRKTLLPKRTACPTKNSMEGASTSTTENFGHRAKRARVSGKSQDLSAAPAEQYLQEKLPDEVVLKIFSYLLEQDLCRAACVCKRFSELANDPILWKRLYMEVFEYTRPMMHPEPGKFYQINPEEYEHPNPWKESFQQLYKGAHVKPGFAEHFYSNPARYKGRENMLYYDTIEDALGGVQEAHFDGLIFVHSGIYTDEWIYIESPITMIGAAPGKVADKVIIENTRDSTFVFMEGSEDAYVGYMTIRFNPDDKSAQHHNAHHCLEITVNCSPIIDHCIIRSTCTVGSAVCVSGQGACPTIKHCNISDCENVGLYITDHAQGIYEDNEISNNALAGIWVKNHGNPIIRRNHIHHGRDVGVFTFDHGMGYFESCNIHRNRIAGFEVKAYANPTVVRCEIHHGQTGGIYVHEKGRGQFIENKIYANNFAGVWITSNSDPTIRGNSIFNGNQGGVYIFGDGRGLIEGNDIYGNALAGIQIRTNSCPIVRHNKIHDGQHGGIYVHEKGQGVIEENEVYSNTLAGVWVTTGSTPVLRRNRIHSGKQVGVYFYDNGHGVLEDNDIYNHMYSGVQIRTGSNPKIRRNKIWGGQNGGILVYNSGLGCIEDNEIFDNAMAGVWIKTDSNPTLRRNKIHDGRDGGICIFNGGRGLLEENDIFRNAQAGVLISTNSHPILRKNRIFDGFAAGIEITNHATATLEGNQIFNNRFGGLFLASGVNVTMKDNKIMNNQDAIEKAVSRGQCLYKISSYTSYPMHDFYRCHTCNTTDRNAICVNCIKKCHQGHDVEFIRHDRFFCDCGAGTLSNPCTLAGEPTHDTDTLYDSAPPIESNTLQHN
B3: Histone-lysine N-methyltransferase SMYD1 (Homo sapiens), Q8NB12 (parent)
chain: MTIGRMENVEVFTAEGKGRGLKATKEFWAADIIFAERAYSAVVFDSLVNFVCHTCFKRQEKLHRCGQCKFAHYCDRTCQKDAWLNHKNECSAIKRYGKVPNENIRLAARIMWRVEREGTGLTEGCLVSVDDLQNHVEHFGEEEQKDLRVDVDTFLQYWPPQSQQFSMQYISHIFGVINCNGFTLSDQRGLQAVGVGIFPNLGLVNHDCWPNCTVIFNNGNHEAVKSMFHTQMRIELRALGKISEGEELTVSYIDFLNVSEERKRQLKKQYYFDCTCEHCQKKLKDDLFLGVKDNPKPSQEVVKEMIQFSKDTLEKIDKARSEGLYHEVVKLCRECLEKQEPVFADTNIYMLRMLSIVSEVLSYLQAFEEASFYARRMVDGYMKLYHPNNAQLGMAVMRAGLTNWHAGNIEVGHGMICKAYAILLVTHGPSHPITKDLEAMRVQTEMELRMFRQNEFMYYKMREAALNNQPMQVMAEPSNEPSPALFHKKQ
B4: Histone-lysine N-methyltransferase SMYD1 (Homo sapiens), Q8NB12 (parent)
chain: B3 chain
partner: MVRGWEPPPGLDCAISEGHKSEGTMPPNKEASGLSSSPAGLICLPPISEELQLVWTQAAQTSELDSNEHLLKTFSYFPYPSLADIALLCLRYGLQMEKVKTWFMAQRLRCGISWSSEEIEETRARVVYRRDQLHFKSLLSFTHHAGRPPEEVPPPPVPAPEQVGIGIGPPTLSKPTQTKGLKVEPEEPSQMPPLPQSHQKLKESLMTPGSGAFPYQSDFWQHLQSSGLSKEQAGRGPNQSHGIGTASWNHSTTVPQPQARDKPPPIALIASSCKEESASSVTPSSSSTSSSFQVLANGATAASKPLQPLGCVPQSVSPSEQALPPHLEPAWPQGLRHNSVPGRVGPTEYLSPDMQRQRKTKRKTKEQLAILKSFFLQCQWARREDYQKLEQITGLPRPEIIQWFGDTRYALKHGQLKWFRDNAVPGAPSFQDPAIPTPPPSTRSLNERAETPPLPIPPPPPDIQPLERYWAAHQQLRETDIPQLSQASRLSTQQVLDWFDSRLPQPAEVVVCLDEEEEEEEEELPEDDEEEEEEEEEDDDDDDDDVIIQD

Variants of: B1
Details: with kr107_human KRTAP10-7, P60409

| Variant | effect of a mutation on the interaction |
| --- | --- |
| MHGGQGPLLLLLLLAVCLGAQGRNQEERLLADLMQNYDPNLRPAERDSDVVNVSLKLTLTNLISLNEREEALTTNVWIEMQWCDYRLRWDPRDYEGLWVLRVPSTMVWRPDIVLENNVDGVFEVALYCNVLVSPDGCIYWLPPAIFRSACSISVTYFPFDWQNCSLIFQSQTYSTNEIDLQLSQEDGQTIEWIFIDPEAFTENGEWAIQHRPAKMLLDPAAPAQEAGHQKVVFYLLIQRKPLFYVINIIAPCVLISSVAILIHFLPAKAGGQKCTVAINVLLAQTVFLFLVAKKVPETSQAVPLISKYLTFLLVVTILIVVNAVVVLNVSLRSPHTHSMARGVRKVFLRLLPQLLRMHVRPLAPAAVQDTQSRLQNGSSGWSITTGEEVALCLPRSELLFQQWQRQGLVAAALEKLEKGPELGLSQFCGSLKQAAPAIQACVEACNLTACARHQQSHFDNGNEEWFLVGRVLDRVCFLAMLSLFICGTAGIFLMAHYNRVPALPFPGDPRPYLPSPD [I448T] | with no effect |

Variants of: B2
Details: with skp1_human SKP1, P63208
Chain of skp1_human SKP1, P63208 (P63208 whole entry): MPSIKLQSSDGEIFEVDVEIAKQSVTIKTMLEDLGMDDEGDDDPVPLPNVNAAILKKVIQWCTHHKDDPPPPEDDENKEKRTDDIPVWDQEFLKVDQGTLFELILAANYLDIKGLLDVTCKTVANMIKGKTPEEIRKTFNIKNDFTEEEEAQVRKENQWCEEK

| Variant | effect of a mutation on the interaction |
| --- | --- |
| Y692F | with no effect |

Variants of: B3
Details: with bhe40_human BHLHE40, O14503
Chain of bhe40_human BHLHE40, O14503 (O14503 whole entry): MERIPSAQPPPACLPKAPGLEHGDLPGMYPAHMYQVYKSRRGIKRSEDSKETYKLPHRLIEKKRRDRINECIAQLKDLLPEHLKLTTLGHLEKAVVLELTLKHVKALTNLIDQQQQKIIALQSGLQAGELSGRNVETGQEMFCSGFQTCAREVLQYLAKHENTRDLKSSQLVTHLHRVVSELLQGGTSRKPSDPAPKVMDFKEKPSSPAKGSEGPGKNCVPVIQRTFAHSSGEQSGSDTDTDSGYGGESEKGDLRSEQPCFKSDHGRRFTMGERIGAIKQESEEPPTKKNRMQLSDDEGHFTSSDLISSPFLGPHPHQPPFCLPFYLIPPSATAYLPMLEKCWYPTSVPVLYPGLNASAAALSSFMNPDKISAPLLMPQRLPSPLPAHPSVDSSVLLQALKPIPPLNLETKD

| Variant | effect of a mutation on the interaction |
| --- | --- |
| MTIGRMENVEVFTAEGKGRGLKATKEFWAADIIFAERAYSAVVFDSLVNFVCHTCFKRQEKLHRCGQCKFAHYCDRTCQKDAWLNHKNECSAIKRYGKVPNENIRLAARIMWRVEREGTGLTEGCLVSVDDLQNHVEHFGEEEQKDLRVDVDTFLQYWPPQSQQFSMQYISHIFGVINCNGFTLSDQRGLQAVGVGIFPNLGLVNHDCWPNCTVIFNNGNHEAVKSMFHTQMRIELRALGKISEGEELTVSYIDFLNVSEERKRQLKKQYYFDCTCEHCQKKLKDDLFLGVKDNPKPSQEVVKEMIQFSKDTLEKIDKARSEGLYHEVVKLCRECLEKQEPVFADTNIYMLRMLSIVSEVLSYLQAFEEASFYARRMVDGYMKLYHPNNAQLGMAVMRAGLTNWHAGNIEVGHGMICKAYAILLVTHGPSHPITKDLEAMRVRTEMELRMFRQNEFMYYKMREAALNNQPMQVMAEPSNEPSPALFHKKQ [Q443R] | with no effect |

Variants of: B4
Details: with homez_human HOMEZ

| Variant | effect of a mutation on the interaction |
| --- | --- |
| MTIGRMENVEVFTAEGKGRGLKATKEFWAADIIFAERAYSAVVFDSLVNFVCHTCFKRQEKLHRCGQCKFAHYCDRTCQKDAWLNHKNECSAIKRYGKVPNENIRLAARIMWRVEREGTGLTEGCLVSVDDLQNHVEHFGEEEQKDLRVDVDTFLQYWPPQSQQFSMQYISHIFGVINCNGFTLSDQRGLQAVGVGIFPNLGLVNHDCWPNCTVIFNNGNHEAVKSMFHTQMRIELRALGKISEGEELTVSYIDFLNVSEERKRQLKKQYYFDCTCEHCQKKLKDDLFLGVKDNPKPSQEVVKEMIQFSKDTLEKIDKARSEGLYHEVVKLCRECLEKQEPVFADTNIYMLRMLSIVSEVLSYLQAFEEASFYARRMVDGYMKLYHPNNAQLGMAVMRAGLTNWHAGNIEVGHGMICKAYAILLVTHGPSHPITKDLEAMRVRTEMELRMFRQNEFMYYKMREAALNNQPMQVMAEPSNEPSPALFHKKQ [Q443R] | with no effect |
